The record followed here is the DeepSol protein solubility set.

The series can be described thus: soluble on expression in E. coli; label from the status in PepcDB or PDB records.
On to “MLGKDYMLAIILVNCDDDLWGDHSLEVEAGLPPGWRKIHDAAGTYYWHVPSGSTQWQRPTWELGDAEDPGTGTEGIWGLRPPKGRSFSSLESSLDRSNSLSWYGGESYIQSMEPGAKCFAVRSLGWVEVPEEDLAPGKSSIAVNNCIQQLAQTRSRSQPPDGAWGEGQNMLMILKKDAMSLVNPLDHSLIHCQPLVHIRVWGVGSSKGRDRDFAFVASDKDSCMLKCHVFCCDVPAKAIASALHGLCAQILSERVEVSGDASCCSPDPISPEDLPRQVELLDAVSQAAQKYEALYMGTLPVTKAMGMDVLNEAIGTLTARGDRNAWVPTMLSVSDSLMTAHPIQAEASTEEEPLWQCPVRLVTFIGVGRDPHTFGLIADLGRQSFQCAAFWCQPHAGGLSEAVQAACMVQYQKCLVASAARGKAWGAQARARLRLKRTSSMDSPGGPLPLPLLKGGVGGAGATPRKRGVFSFLDAFRLKPSLLHMP”, for which the “soluble on expression in E. coli” value is given as “soluble”.
As to “MSLAGCTSPANNGAGGDENGETVYRVAYVARTQSDSFAAWLANAISEEADKYDNIIIDVFDGQASDSTQNSLIENAITSNYDAIIIQPNNGEAQKSYAEQAVAAGIITITTNARIEGVQGASSVDADPYEQAKVNADVALEQIPQNANVVVLKGPPGNFHADARRDSWQKEFFDKRPDVTIVGEEIANWNKDEAMTYMETWVQANSKIDAIIAMNDNMAAGALEVVRDDSNFAGMLSYGVDGTAEAVLLIQEGVMTQTSLQSAYDLATALLDTSNKLLTGAETQIDIDIDAPVINSDNVEEYVEMHKRAGAIREGHHHHHH”, the “soluble on expression in E. coli” value is “soluble”.
On to “MGSDKIHHHHHHMMNVLRDGCSERGTARVGKHHDLKTVRWYVLTLPTTGVARRDKISPAKSLDAELSRRKRRGETLFEYFAPSYVEVRKVDGKMVNTKRPLLFNYVFIRSSVEEIFQMKRTLPLYNFLPRVSSGGMTHFPYLSDSEMGNLRWVAESYSNELPVYVPDSNRLLKGDRVRITSGYFTGMEAEVVIQPGGGHKDVMARILDCMWVPLLEVKPGEYELIELNTKGKHAYTHLDNDRLREGLHDALGRYHTSGSVAEEDTRLACEVLRSYGSLRAETDVMRCKIYSLLLSAYKLLGDEEEFTRLHDTMRGMLPVVKAPQSRALLLVTLYGCTDSALYRQMAHEVVDPWRGESSPKKSKLSLIRRLDDCDRWLRHNE”, for which the “soluble on expression in E. coli” value is “not soluble”.
With “MWSEKHKSGKVNFVERYKHPYTGKWCRASVLMEKDTPRIRKEAQKYLDEKISEILTSLTTTDAYLLDVMNEWWEHHQKSLKSTSVRSLDFRIRELRNLIDPEVMIAKITTKYLQSIIDKIPGSYDKRKRARQLLKQTFDYAIALEYVSINPVISTQLAKPVKTIKDFEDVAQKFLEKDELKRLLDEMYRRKGSIKMAYLAEFMSLNGCRIGEALAIQPDNIKNDIIEIHGTLDYTSNGYRNAIKTTPKTNSSWRETLITKREKEIIQDILKINALEKNTNPNYKDMGYIFISRNGVPIQDNALNTSIRAANKRLEKPIQKELTSHIFRHTLVSRLAENKVPLKTIMDRVGHADSKTTQQIYTHVTKSMKNEVVDILNRL” the entry was “not soluble”; with “MTDAQSRDEKGIPASIYDGIFKNNRQIKPGNPNELKMVMGLKLKEVNKDCADAVLRVSKATLSWEIVREIMNATERLIQERVSDPTGQVAIAVDPPSSWSKSVTDFLASCYKLSPSPNFKFLELLAILTGKSQYLILQWFDTAEEEKREKNQKLETATFKRHCPWRKRHRLIQPLSNATAIPFLEAAFQKSSIPGSVELYDLQLKTNWFICELKAWFTARRVAEEIKGKLSELTGVQGVAKDQS”, “not soluble”; with “SKDELGEVIHAFNRMMTKLRKREKQRQHSLATLEQKRAFSEEVIESIQYALVITDNLGTIIHSNAATQHIFQKTPEALENANIRDLIKTKMPNELSQILSRCLECDDIHLQNIDNEQQLSLTTRRLSNHGYLLFAIQD”, “not soluble”.
For the sequence “MSLKQILNHARIVLADRVIDNGALEINDGRIAAIHEHALPDGEDLAGALLLPGLVEIHTDNLEKHLMPRNGVLWPILPAVITHDAQCVAAGITTVLDALAVGDLEGESVRLDTLHSSFDAINQGMREGALRADHFFHLRCELAYPGLLDELEALIAHPAVKLVSVMDHTPGQRQYRDLEQYKKYYGKKKVGWNEDTFLAAVAERKTKQAQYAGRHKQAVVELAQARGIALASHDDTDEAHIEEALRDGVAISEFPTTREAAAAAKRHGLATVMGAPNVVRGGSHSGNVAALELARHDLLDILSSDYVPASLLHGAWLLHAQAGWSLPRAVAAVSLNPAHSVGLADRGDIAVGQRADLVAMIVHGDVPLVRQVWNSGRRVFEGHHHHHH”, the “soluble on expression in E. coli” value is reported as “soluble”.
“METFTVKMGADSGLLQFEPANVTVHPGDTVKWVNNKLPPHNILFDDKQVPGASKELADKLSHSQLMFSPGESYEITFSSDFPAGTYTYYCAPHRGAGMVGKITVEG”: the “soluble on expression in E. coli” value is on record as “soluble”.
Turning to “MFKFLMIISMSKHIKRAAKNREDLLEAAVEMFKTHGMMVPLQVIIDHANVGRATFYRNFADRKMLVYALLEQSLVKLKQRTQLYQTYPDGLIRLIQSHVNHLNHLSALMEYWRVLDYSDTSLQALIQQHQRIIQPLIDQAILHKVCRPDFNFEDYRSIVTMLSSSFRGHTEQEQIRMASRVIDLLLNGICLNQEESHG”, the “soluble on expression in E. coli” value is on record as “not soluble”.
With “MSLAKTVEEINQKIREGNVVVVTAAEMKDIVEELGPEKAAKEVDVVTTGTFGAMCSSGAFFNFGHADPPIKMQRVWMNDVEAYTGIAAVDAYLGVTQLSESVEEYGGSHVIEELVKGREVELKATAYGTDCYPRKEIVTEVSLEDVNQAVMVNPRNAYQRYNAATNSSNKLLRTYMGTLLPNFGNVTFAGTGEISPLNNDPEYRTIGIGTRIFLCGAKGYVIGEGTQHAPPYGTLMVKGNLKEMKPEYMKAAYFPGYGATLFVGIGIPIPILDAEMAKFTAVRNSEIETKILDFGVARRDRPVVRKVTYEELISGRVEINGEEVRVSPLSSFYMAEKIMKELKRQIERGEFLLTAPVDRIPTKEVFKPMRQREVKVVKSVMVEAYTISPETAIEEAARIMMDKGINHIPVVEEGRLVGIITSWDIAKAVARNRKGAVKSIMTRNVIYTHPDEPVEVAARKMEQNNISALPVVDSRKRVLGIVTSEDLSKLIAREGHHHHHH” the entry was “soluble”; with “MGSDKIHHHHHHMAIGTLEATTLIRGRAMTTVLPSPELIASFVDIVGPGNALTAPADTAPYLVESRGLYRGTTPLVLRPGSVEEVSLVMRLASQTRTAVVPQGGNTGHVAGQIPREGKADVVLSLERLNRIRDIDPVGNVIVADAGCILADIQKAADDVDRLFPLSLGSEGSARIGGNLSTNAGGTAVLAYGNMRQLCLGLEVVLPTGEIWDGLRRLRKDNTGYDLRDLFIGAEGTLGVITGAVLKLFPKPRGHQVAFAGLRSVEDALTLFDRATSVCGPALTGFELMPRLGIEFTTRHIAGVRDPMETTHPWYALIDISTSDTAESAERMVQDLLEAVIADGLVENAVIAQNEAQRRALWHMRESMSPAQKPEGGSIKHDVSVPVSSIPAFMTEADALVSKAIPGARICAFGHMGDGNIHYNISQPVGADKQSFLDRWREINAIVHAVVLKHDGSISAEHGIGQLKRDELAAIRSPIEIELMRRIKHAFDPAGIMNPDKVLREDRGE”, “not soluble”; with “MDFVSEMNKILQMELEQFKEFIQKKLEEDKNYLEKLFWLPNGSQMTVLNYLIEQYSEPKLGIDDANRDLLAKIDFVLHEAKDVNVGEPLHQAIVAGKISLALHLLGVDENNFTPGESEKTDVLSILSKVRKKIEESFNHVKRCFFDVDKRDGYGRTLLSLALDAKRQELLIAILARNPIVHATTLRSSAYVPFQPIHQAVVLDYAEGITLLASMGAQLTNPLGSMRDTPVILAARLGKINALAALLELPTQSLSLESENNHLFEDKQTGHTAVEELCERMANENDKADALRGIAMLICRGAEPPRNEKMRNLLSSNRVAFLKAVSTYLADKPQLVDAFVERCHLRESALHNIVYADHSWGSSIRHLLGVPSEAALIVEELVTRKYSDPSFASENVSSLSTTATENLRSERNPLKLYAEFVRRYTQAYDSQMITNRWSTMRWMIAEGNCDWDTVVRYSKNHPTSRTRIVLNEMFNPIPRVHEDIESQQSSPRVVLK”, “not soluble”.
Next, “MYTAIVNLKTYREATGANFTRFMEKFEPVQGKFELIFSPSLLDLEKAAKCGKFRFFAQHVDAEPYGAYTGHVPMDMMIDLGITGSILNHSERRLPRDTIINTLKKASKLDFTIVLCVENAEEAKYFREYEPDFIAYEPRDLIGGDVSVSTAKPEIIEDIVKIYEGTGTSVLVGAGIKTGEDVRRSIGLGARGILVASGVVKSADPTKSLNSLIELK”: “not soluble”.
With “MPVDQSRQYLRIRDQLAADIAQGVLQVKLPSERELAERFLCTRITLREALQQLETEGLVYRENRRGWFVAPPRIRYNPTRTTGFMEYVSAQGRQPRTETLHAERRAAGAWLAKRMGLEDSAPVYFLQRRRWVDERPVLIELIALDAGWCPGLLDHDLDTSLMSLLRERFGLQPTRCQLAMHPTALNAAQAEPLQLAPGSPALYLERLSYAEGQRVVEFDQEFWRPDALEIVLDAAYPGA” the entry was “not soluble”; with “MGSDKIHHHHHHMQLEELINQHYSKLNDNDFHILKYILNHKHTCYHLGIDALAKACSVSRSSILRLAQKLGFSGYSEFRVFLKWEDQPEEGESMSFEKLLDDIEANLKFLRTKDMTDMCQLIDAADRIFVYGSGNAQKICARDLQRMFIPRHRYLILIEDTNEFNLMRDDFKVNDLFIIISLSGETPELIPQARMLSAKGIPFISITNLKNNVLAQLTPHNLYATSKPVTLSDRTEIVAFAPFFLVGEALFRAYVDYKEAEKNDNE”, “not soluble”; with “TITNILLVGVGGQGILLASEILSEAFMLAGFDVKKSEIHGMSQRGGSVVSHVRYGKEVHSPIVPEGEGDILFGFELMETYRYLPLLRKGGTVVANDLRISPPSVLLGQASYPDDLPDRIRALFPDFLLVDGQHLAAEAGNVRAANTVLLGAVAKQLDIPDECWHKALERMVPPKALDVNRKAFQLGRAL”, “not soluble”.
Turning to “MGSDKIHHHHHHMLKSLLLTPINLAVKPFPAAKARLDAAKIVLKRWVKLRHFISDLLHAKSFMFWSAQDTSYAKLSSELIFQYHKLEKGLCMAGPRRFFGRDPVIATCRLVKRWSGAGLPSNDPVFLGAIETLRAYRDRLAVTPPPPEHATQIWSLLNECLSLAPPTPSLTTPRPYQPSAGTAATFDLLCAQRRSVRAYTTDVVPISLIHEAIATAQLSPSACNRQPWRLHIYRDPQRTKHLLELQNGNAGFGHQLTTLLVVCADSRTFFDATERNEPYVDAGLFVMSLLLALQSRGLASCCLNWCVSPDTDQKGHDRGDIPSNEKIIMYLAVGYADAQAMVPRSPRRNLETVVTLHEQ”, the “soluble on expression in E. coli” value is “not soluble”.
With “MSLEDFAESEGGVKKKIPISLVTIRSAKLFDIPFIMRIEQASFREKYPRGLFLTFLESNPDTFLVAEYNGKVIGYVMGYLRPDMEGHIMSIAVDPNYRGNGIGKALMIAVINKLFKKGARWIGLEVRVSNVIAINLYKKLGFKITKRIYSYYSDGEDAFYMILTPEDWKRVNLEEGHHHHHH” the entry was “soluble”; with “MNRNRLPALTPGLAWSRPMNGAVDHKGYEQPTYDLEFAETATEIRRYGPYLVAEVTMAGDRSTAITRGFRVLARYIFGGNAESRRIEMTVPVSQLPAGEDLWTVRFTMPAVRSASLLPAPKDSRIRFVTVPPSRQAVRRFSGWPTDHALRRQAEGLAHWIAERGLPKREGPYFYFYDSPMTLPWQRRNEVAFGLGEGAAALEHHHHHH”, “not soluble”.
With “MTYTSLKSPENQDYIYDLTIAHLYGNLMNTYGDNGNILMLKYVAEKLGARVTVDIVSINDTFEQDDYDIVFFGGGQDYEQSIVAKDLPSKKAALADYIANNKVVLAICGGFQLLGQYYVQANGVKIDGLGIMGHYTLNQHQNRFIGDIKIHNDEFNETYYGFENHQGRTFLSGDEKPLGRVVYGNGNNKEDQTEGVHYKNVYGSYFHGPILSRNVNLAYRLVTTALKKKYGSAISLPSYDDILKQEITEEYADLKSKASFNKV”, the “soluble on expression in E. coli” value is recorded as “not soluble”.
